Assays:
[1] = biological target: T1, Human LOX-1 full-length protein (human, UniProt P78380 1-273); experiment: flow cytometry, inhibition of dil-OxLDL binding to huLOX-1/HEK293 cells
T1 construct: also called huLOX-1/HEK293 cells; human LOX-1 transfected HEK293 cells
Procedure: The huLOX-1/HEK293 cells were resuspended at 1×10⁶ cells/mL and seeded 50 μL per well into a 96-well V-bottom plate (5×10⁴ cells per well). LOX-1 or irrelevant control antibodies in assay medium (DMEM+10% FBS) were then added to the cells. Typical final antibody concentrations ranged from 0.006 μg/mL to 20 μg/mL. The cells were incubated at 37° C. for 1 hour, then washed twice with warm HBSS. Dil-oxLDL (human dil-labeled “High Oxidized” LDL, Kalen Biomedical, catalog number 770262-9; Dil is 1,1′-dioctadecyl-3,3,3′,3′-tetramethylindocarbocyanine perchlorate) in 50 ul assay medium was then added to a final concentration 30 to 100 μg/mL. The cells were then incubated at 37° C. for 2 hours, and then washed twice with FACS buffer (2% FBS in PBS). Cells were then analyzed for intensity of Di-I fluorescence by flow cytometry, as depicted in FIG. 2 and Table 3.

[2] = biological target: T1, Human LOX-1 full-length protein; experiment: cell-based or functional assay
[3] = biological target: T2, APP-Avi-soluble cynomolgus monkey LOX-1 (61-273) (cynomolgus monkey, biotinylated at the Avi tag when immobilised in the SET assay); experiment: SPR Biacore T200, antibody captured by anti-mouse IgG, cynomolgus soluble LOX-1 as analyte, 1:1 model
T2 construct: Expressed and purified in the same way as the human protein; also called cynomolgus monkey soluble LOX-1; Cynomolgus Monkey Soluble APP-Avi-LOX-1
Procedure: For murine LOX-1 antibody E2E10 binding to human and cynomolgus monkey LOX-1, a Biacore T200 was primed with fresh, filtered running buffer (1×HBS-EP+(GE catalog number BR-1006-60)). A CM5 chip (GE catalog number BR-1005-30) was prepared using a mouse antibody capture kit (GE catalog number BR-1008-38) and an amine coupling kit (GE catalog number BR-1000-50). Briefly, a new chip was activated with EDC/NHS at 10 ul/min for 420 sec. Anti-mouse IgG antibody was immobilized at […] 10 mM acetate pH 5.0 at 10 ul/min for 420 sec. The chip surface was deactivated with 1M ethanolamine solution (10 ul/min for 420 sec) and then conditioned three times with 10 mM Glycine-HCl, pH 1.5 (GE catalog number BR-1003-54) at 60 ul/min for 30 sec.
For sample cycles, 1) Ms-anti-Hu LOX-1 mAb was captured on flow cell 2, 3, or 4 for a pre-determined amount of time that allowed for capture of approximately 20RUs at 10 ul/min. Flow cell 1 was used as a reference, 2) running buffer for 30s at 60 ul/min, 3) human soluble LOX-1 or cynomolgus monkey soluble LOX-1 diluted in running buffer at various concentrations (with at least two duplicate samples and multiple buffer blanks for 350 sec at 60 ul/min, with either 750 sec or 3000 sec dissociation time), 4) regeneration buffer for 60 sec at 60 ul/min, 5) running buffer for 35s at 60 ul/min, extra wash with running buffer and including a carry-over control. Data were analyzed using buffer blanks, reference blank, and a 1:1 binding model for curve fitting in order to determine association and dissociation rate constants (ka and kd) and equilibrium binding constants (KD) (see results for E2E10 in Tables 7-8).

[4] = biological target: T1, Human LOX-1 full-length protein; experiment: flow cytometry, biotinylated antibody on primary human neutrophils, PE-streptavidin
Procedure: The resulting cell suspension was carefully transferred to a 50 mL conical tube containing 10 mL Ficoll-Paque, layering the cell suspension on top of the Ficoll-Paque, and the tube was then centrifuged at 1400 rpm (400×g) for 30 minutes at room temperature. The top layer was the discarded. To the resulting cell pellet, 10 mL 0.2% ice-cold sodium chloride was added, and the mixture was incubated for exactly 30 seconds to lyse red blood cells; 10 mL of ice-cold 1.6% sodium chloride was added to restore isotonicity. The cell suspension was then centrifuged at 1200 rpm ([…]) for 5 minutes. The supernantant was then discarded, and the red blood cell lysis procedure repeated once more. The resulting cell pellet was resuspended in FACS buffer (2 mM EDTA, 1% BSA, and 0.2% sodium azide in PBS) at a cell density of 2×10⁶ cells/mL.
The cell suspension containing freshly isolated human neutrophils was transferred (50 ul/well) to wells of a 96-well V-bottom plate (1×10⁵ cells/well) (Costar, catalog number 3894). Blocking buffer (4% normal rabbit serum diluted in FACS buffer (2 mM EDTA, 1% BSA, and 0.2% sodium azide in PBS) (50 ul/well) was added and the plate was incubated on ice for 30 minutes. Biotinylated LOX-1 antibody (10 μl) in FACS buffer was then added to the wells at final concentrations ranging from 1 ng/ml to 5 ug/mL, and the plate was incubated on ice for 30 minutes. The plate was then centrifuged at 1200 rpm (250-300×g) for 3 minutes and supernatant was discarded. The cells were then washed twice with 0.2 mL FACS buffer, and then 0.1 mL of PE-streptavidin (BD Pharmingen catalog number 554061) diluted at 1:250 in FACS buffer was added, and the plate incubated on ice for 30 minutes. The plate was then centrifuged again, supernatant discarded, and the cells washed twice with 0.2 mL FACS buffer. Cells were then resuspended in 0.1 mL of fixing buffer (FACS buffer with 2% paraformaldehyde) and analyzed using a FACS instrument. To determine an EC50 value for neutrophil binding by LOX-1 antibodies, the LOX-1 staining intensity determined by FACS was plotted vs. the concentration of the antibody as shown in FIG. 5 and Table 3.

T2 sequence (chain, as listed by the source): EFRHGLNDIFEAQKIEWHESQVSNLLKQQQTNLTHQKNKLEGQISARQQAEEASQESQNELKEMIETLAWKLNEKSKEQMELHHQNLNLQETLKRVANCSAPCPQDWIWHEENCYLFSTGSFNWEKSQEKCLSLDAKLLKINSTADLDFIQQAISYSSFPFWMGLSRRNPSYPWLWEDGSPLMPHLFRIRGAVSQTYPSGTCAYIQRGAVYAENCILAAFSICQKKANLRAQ

IC50 [1]: 4 nM | Reactive oxygen species (ROS) generation in huLOX-1/HEK293 cells (IC50, nM) [2]: 5.7 nM | Kd [3]: 0.015 nM | koff [3]: 2.5e-05 s⁻¹ | kon [3]: 1.7e+06 M⁻¹ s⁻¹ | EC50 [4]: 0.04 µg/mL
B1: E2E10 (murine parental) (antibody, IgG1, V domains shown)
VH: QVQLQQSGAELVRPGASVKLSCKALGYTFTDYEMHWVKQTPVHGLEWIGAIHPGSGGAAYIQKFKGKATLTADKSSSTAHMELSSLTSEDSAVYYCTRWLPMDYWGQGTSVTVSS
VL: DIQMTQSSSYLSVSLGGRVTITCKASDHINNWLAWYQQKPGNAPRLLISGATSLETGVPSRFSGSGSGKDYTLSITGLQTEDVATYYCQQYLITPYTFGGGTKLEIK
notes: Mouse hybridoma monoclonal antibody, IgG1 with a kappa light chain; Biotinylated in the SET and neutrophil assays; also called Clone 39.1E2E10; mouse parental

Source: patent US20170152313A1 (Novartis, published 2017)
